9 molecules from US20210198377A1 (XDCEXPLORER SHANGHAI, published 2021) can be followed below.

Test [1] concerns the target T1, human TPBG (full length, on cells) (human, UniProt Q13641 32-420).
T1 sequence (looked up): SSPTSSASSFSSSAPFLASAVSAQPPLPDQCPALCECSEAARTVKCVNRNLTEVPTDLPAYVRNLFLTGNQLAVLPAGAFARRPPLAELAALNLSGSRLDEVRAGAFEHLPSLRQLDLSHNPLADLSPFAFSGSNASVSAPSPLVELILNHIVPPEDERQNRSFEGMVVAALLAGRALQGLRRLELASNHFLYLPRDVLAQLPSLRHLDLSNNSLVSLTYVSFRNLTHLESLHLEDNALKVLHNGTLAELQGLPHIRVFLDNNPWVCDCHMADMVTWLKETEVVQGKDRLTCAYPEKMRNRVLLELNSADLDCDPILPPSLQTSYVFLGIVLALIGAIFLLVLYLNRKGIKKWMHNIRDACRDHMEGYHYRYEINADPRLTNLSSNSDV
Put plainly: FACS, HEK293 clone 293F-hTPBG 4E1.

Test [2] concerns the target T1, human TPBG (full length, on cells). The test can be described thus: FACS, HEK293 clone 293F-hTPBG 4H12. For orientation: Flow cytometry measures light scatter and fluorescence of single cells or particles in a stream.
The target is the same in test [3]. The test can be described thus: FACS, HEK293 cell strain 5E5E9 transfected with human TPBG.
The target is the same in test [4]. Put plainly: FACS, HEK293 clone 293F-hTPBG 5C12.
Test [5] has the same target. The test can be described thus: FACS, HEK293 clone 293F-hTPBG 4C5.
Test [6] has the same target. The test can be described thus: FACS, HEK293 clone 293F-hTPBG 5A9.
For test [7] the target is unchanged. The test can be described thus: FACS, HEK293 clone 293F-hTPBG 5G11.
The target is the same in test [8]. The test can be described thus: FACS, HEK293 clone 293F-hTPBG 4G1.
For test [9] the target is unchanged. Put plainly: FACS, HEK293 clone 293F-hTPBG 4A9.
For test [10], the target named is cynomolgus monkey TPBG (full length, on cells) (cynomolgus monkey) (UniProt Q4R8Y9). The test can be described thus: FACS on CHO-k1-cTPBG 3F13G4 cells.
Test [11] has as its target T1, human TPBG (full length, on cells). Put plainly: FACS, HEK293 clone 293F-hTPBG 5A11.
The target is the same in test [12]. The test can be described thus: FACS, HEK293 clone 293F-hTPBG 5D4.
Test [13] has the same target. Put plainly: FACS on CHO-k1-hTPBG 3A2F1 cells.
For test [14] the target is unchanged. The test can be described thus: FACS, HEK293 clone 293F-hTPBG 5G8.
The target is the same in test [15]. Put plainly: FACS, HEK293 clone 293F-hTPBG 4B9.
Test [16] has the same target. Put plainly: FACS, HEK293 clone 293F-hTPBG 4A8.
The target of test [17] is T2, mouse TPBG (full length, on cells) (mouse, UniProt Q9Z0L0 32-426).
T2 construct: whole, on cells; On transfected CHO-K1 cells; also called mTPBG; CHO-K1-mTPBG
T2 sequence (looked up): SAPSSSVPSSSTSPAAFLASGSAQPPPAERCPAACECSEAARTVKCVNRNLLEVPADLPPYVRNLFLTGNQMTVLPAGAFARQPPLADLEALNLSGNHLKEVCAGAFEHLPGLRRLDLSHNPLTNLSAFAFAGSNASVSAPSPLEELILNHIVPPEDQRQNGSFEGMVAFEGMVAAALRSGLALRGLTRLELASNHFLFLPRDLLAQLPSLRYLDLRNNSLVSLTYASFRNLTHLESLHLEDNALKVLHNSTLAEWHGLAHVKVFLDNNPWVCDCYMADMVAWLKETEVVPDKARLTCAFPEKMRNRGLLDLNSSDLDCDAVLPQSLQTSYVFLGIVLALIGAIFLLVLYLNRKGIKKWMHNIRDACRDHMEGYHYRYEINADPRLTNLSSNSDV
Put plainly: FACS on CHO-k1-mTPBG 3A3 cells.

Test [18] concerns the target T1, human TPBG (full length, on cells). The test can be described thus: FACS, HEK293 clone 293F-hTPBG 4F9.
Test [19] shares this target. The test can be described thus: FACS, HEK293 clone 293F-hTPBG 4G6.
Test [20] has the same target. The test can be described thus: FACS, HEK293 clone 293F-hTPBG 4C3.
Test [21] has the same target. The test can be described thus: FACS, HEK293 clone 293F-hTPBG 5E6.
Test [22] has the same target. Put plainly: FACS, HEK293 clone 293F-hTPBG 5H6.
Test [23] shares this target. The test can be described thus: FACS, HEK293 clone 293F-hTPBG 5E5.
The target is the same in test [24]. Put plainly: FACS, HEK293 clone 293F-hTPBG 4E1 (NO. 8).
The target is the same in test [25]. The test can be described thus: cell-based or functional assay.
The target is the same in test [26]. Put plainly: cell-based or functional assay. The source holds these as a separate data set.
The target is the same in test [27]. The test can be described thus: cell-based or functional assay. This is another data set of the same source.
The target is the same in test [28]. The test can be described thus: cell-based or functional assay. This is another data set of the same source.

Read-outs that look alike come from different tables or passages of the source. Some results are limits rather than exact numbers.

Take “commercial available TPBG antibody (purchased from Sigma, Lot NO: SAB1404485)”: the MFI in test [1] was found to be 145 MFI; in test [2], 9.5 MFI; in test [3] it was 216 MFI; in test [4], 75.4 MFI; in [5], 172 MFI; in [6], 53.2 MFI. The MFI came to 11.3 MFI in test [7]; 131 MFI in [8]; 204 MFI in [9]; 198 MFI in [10]; 166 MFI in [11]; 70.6 MFI in test [12]. Besides, the MFI in test [13] turned out to be 798 MFI; in test [14] it was 168 MFI; in [15], 126 MFI; in test [16], 33.4 MFI; in [17], 135 MFI; in test [18], 47.7 MFI. Moreover, the MFI in [19] was found to be 31.8 MFI; in [20], 27.2 MFI; in test [21], 13.2 MFI; in test [22], 36.4 MFI; in test [23], 280 MFI; in [24], 91.8 MFI. Also, in [3], the percentage of TPBG-positive cells amounted to 98.5%.

In the case of Control hIgG-MMAF (antibody), in test [25], the IC50 of cytotoxicity on TPBG-positive NCI-H1299 cells (CellTiter-Glo) was above 100000 pM.

B1: Chimeric Antibody 39A11-MMAF (antibody, human IgG1, DAR 3, V domains shown)
VH: QVQLQQSGAELMKPGASMRLSCKATGYTFTGYWLEWIKRRPGHGLEWIGEILPGRGSTNYNEKFKGKATFTAETSSNTAYMQLTSLTTEDSAIYYCARGGRDFDNWGQGTTLTVSS
VL: DIQMTQSTSSLSASLGDRVTISCSASQGINNHLNWYQQKPDGTVKLLIYYTSSLHSGVPSRFSGSGSGTDYSLTISNLEPEDIAIYYCQQFSKLPYTFGGGTKVEMK
modifications: MC-MMAF on cysteines after TCEP reduction, sites not stated
Take B1: the “IC50 of cytotoxicity on TPBG-positive NCI-H1299 cells (CellTiter-Glo)” value in [26] is 4300 pM.

B2: Chimeric Antibody 28D4-MMAF (antibody, human IgG1, DAR 3, V domains shown)
VH: DVQLVESGGGLVRPGGSLKLSCAASGFTFSNYVMSWARQSPEKRLEWVAEISTGGSHTYYSDTVTGRFTISRDNAKKALYLEMSSLRSEDTAIYYCIMFYYGSSYSMDYWGQGTSVTVSS
VL: DIQMTQSTSSLSASLGDRITISCRASQDIRNYLNWYQQKPDGTVKLLIYHTSRLHSGVPSRFSGSGSGTDYSLTISNLEQEDIATYFCQQGDTLPLTFGAGTRLELK
modifications: MC-MMAF on cysteines after TCEP reduction, sites not stated
Regarding B2, the figures for the “IC50 of cytotoxicity on TPBG-positive NCI-H1299 cells (CellTiter-Glo)” value in [26] and in test [28] were 210 pM and 132 pM, respectively. Besides, the “IC50 of cytotoxicity on recombinant 293-hTPBG cells (CellTiter-Glo)” value in [27] turned out to be 24 pM. Moreover, the “IC50 of cytotoxicity on TPBG-positive NCI-H1568 cells (CellTiter-Glo)” value in test [28] worked out at 66 pM.

B3: Chimeric Antibody 28D4-DM1 (antibody, human IgG1, DAR about 3, V domains shown)
VH: DVQLVESGGGLVRPGGSLKLSCAASGFTFSNYVMSWARQSPEKRLEWVAEISTGGSHTYYSDTVTGRFTISRDNAKKALYLEMSSLRSEDTAIYYCIMFYYGSSYSMDYWGQGTSVTVSS
VL: DIQMTQSTSSLSASLGDRITISCRASQDIRNYLNWYQQKPDGTVKLLIYHTSRLHSGVPSRFSGSGSGTDYSLTISNLEQEDIATYFCQQGDTLPLTFGAGTRLELK
modifications: SMCC-DM1, sites not stated
Regarding B3, in test [27], the “IC50 of cytotoxicity on recombinant 293-hTPBG cells (CellTiter-Glo)” value worked out at 406 pM. In addition, in [28], the “IC50 of cytotoxicity on TPBG-positive NCI-H1299 cells (CellTiter-Glo)” value is 6080 pM and the “IC50 of cytotoxicity on TPBG-positive NCI-H1568 cells (CellTiter-Glo)” value worked out at 2510 pM.

B4: Chimeric Antibody 28D4-MMAE (antibody, human IgG1, DAR about 3, V domains shown)
VH: DVQLVESGGGLVRPGGSLKLSCAASGFTFSNYVMSWARQSPEKRLEWVAEISTGGSHTYYSDTVTGRFTISRDNAKKALYLEMSSLRSEDTAIYYCIMFYYGSSYSMDYWGQGTSVTVSS
VL: DIQMTQSTSSLSASLGDRITISCRASQDIRNYLNWYQQKPDGTVKLLIYHTSRLHSGVPSRFSGSGSGTDYSLTISNLEQEDIATYFCQQGDTLPLTFGAGTRLELK
modifications: MC-VC-PAB-MMAE on cysteines after TCEP reduction, sites not stated
In the case of B4, the “IC50 of cytotoxicity on recombinant 293-hTPBG cells (CellTiter-Glo)” value in test [27] turned out to be 80 pM. Moreover, in test [28], the “IC50 of cytotoxicity on TPBG-positive NCI-H1299 cells (CellTiter-Glo)” value came to 369000 pM and the “IC50 of cytotoxicity on TPBG-positive NCI-H1568 cells (CellTiter-Glo)” value was above 100000 pM.

B5: Chimeric Antibody 5G4-MMAF (antibody, human IgG1, DAR 3, V domains shown)
VH: EVQLVESGGDLVQPGGSLKLFCAASGFTFSTYGLSWVRQTPDKRLELVATITNNDGSAYYPDSVKGRFTISRDKAKNTLFLQMTSLKSEDTAMYYCARETGFGSSYLFDYWGQGTLVTVSA
VL: NIVMTQTPKFLLVSAGDRVTITCKASQSVSNDVAWYQQKPGQSPKLLIYFATNRYTGVPNRFTGSGYGTEFTFTISSVQAEDLAVYFCQQDYSSPTFGGGTKLEIK
modifications: MC-MMAF on cysteines after TCEP reduction, sites not stated
In the case of B5, the “IC50 of cytotoxicity on TPBG-positive NCI-H1299 cells (CellTiter-Glo)” value in [26] came out at 87300 pM.

B6: Chimeric Antibody 12B12-MMAF (antibody, human IgG1, DAR 3, V domains shown)
VH: DVQLVESGGGLVQPGGSRKLSCAASGFTFSNFGMHWVRQAPEKGLEWVAYISSGSTSFYYADTVKGRFTISRDNPKNTLFLQMTSLRSEDTAMYYCSRTNSLLRGFFDAWGAGTTVTVSS
VL: DIVLTQSPASLAVSLGQRATISCRASQSVSSSSYTYLHWYQQKPGQPPKLLIKSASNLESGVPARFSGTGSGTDFTLNIHPVEEEDTATYYCQHSWEIPLTFGAGTKLELK
modifications: MC-MMAF on cysteines after TCEP reduction, sites not stated
Consider B6, for which the “IC50 of cytotoxicity on TPBG-positive NCI-H1299 cells (CellTiter-Glo)” value in test [26] stood at 130 pM; in [28] it was 40 pM. Moreover, the “IC50 of cytotoxicity on recombinant 293-hTPBG cells (CellTiter-Glo)” value in test [27] was determined as 1 pM. Moreover, the “IC50 of cytotoxicity on TPBG-positive NCI-H1568 cells (CellTiter-Glo)” value in test [28] turned out to be 25 pM.

B7: Chimeric Antibody 36A10-MMAF (antibody, human IgG1, DAR 3, V domains shown)
VH: DVQLQESGPGMVKPSQSLSLTCTVTGYSITSGYDWHWIRHFPGNKLEWMGYISYSGNTNYNPSLKSRISITHNTSKNHFFLRLNSVTTEDTATYYCARGYGNWDAMDYWGQGTSVTVSS
VL: DIVMTQSQKFMSTSVGDRVSVTCKASQIVDTNVAWYQQKPGQSPKALISSASYRYSGVPDRFTGSGSGTDFTLTISNVQSEDLAEYFCQQYNSYPLTFGAGTKLELT
modifications: MC-MMAF on cysteines after TCEP reduction, sites not stated
As to B7, in test [26], the “IC50 of cytotoxicity on TPBG-positive NCI-H1299 cells (CellTiter-Glo)” value was determined as 700 pM.
